Assay results from patent publication US20170166631A1 (NEURIMMUNE, published 2017).

Columns and labels:
[1] = target: T1, GST-HttExon1Q21 (recombinant huntingtin exon 1 protein with 21 polyQ repeats fused to an N-terminal GST tag) (human, UniProt P08515 1-218 = GST; P42858 1-88); assay: direct ELISA, antigen coated at 5 ug/ml
T1 construct: Expressed in E. coli BL21; also called GST-HD21; soluble GST-HD21; not shown: PreScission cleavage site

[2] = target: T2, HD35 (huntingtin exon 1 protein with 35 polyQ repeats after cleavage of the GST tag; aggregation reaction) (human, UniProt P42858 1-88); assay: filter retardation assay (SDS stable aggregates)
T2 construct: domain: Exon1; Residues left by the protease site are not described; Time-resolved aggregation reaction; also called HD35 aggregates; HttExon1Q35

[3] = target: T3, HD21 (huntingtin exon 1 protein with 21 polyQ repeats after cleavage of the GST tag; aggregation reaction) (human, UniProt P42858 1-88); assay: direct ELISA, antigen coated at 5 ug/ml
T3 construct: domain: Exon1; Residues left by the protease site are not described; Aggregated preparation or time-resolved aggregation reaction; also called aggregated HD21; HttExon1Q21

[4] = target: T1, GST-HttExon1Q21 (recombinant huntingtin …); assay: direct ELISA
[5] = target: T3, HD21 (huntingtin exon 1 protein with 21 …); assay: direct ELISA (Example 25, FIG. 20)
[6] = target: T4, HD49 (huntingtin exon 1 protein with 49 polyQ repeats after cleavage of the GST tag; aggregation reaction) (human, UniProt P42858 1-88); assay: direct ELISA; reference HD21; aggregated or GST-fused form not said
T4 construct: domain: Exon1; Residues left by the protease site are not described; Aggregated preparation or time-resolved aggregation reaction; also called aggregated HD49; aggregated HTT Exon1 HD49
T4 sequence (P42858 other isoform, or with tags, fused parts or gaps limits assumed): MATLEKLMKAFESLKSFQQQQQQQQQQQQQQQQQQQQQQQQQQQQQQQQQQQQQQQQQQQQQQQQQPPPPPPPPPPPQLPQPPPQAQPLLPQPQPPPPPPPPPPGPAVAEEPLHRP

T3 sequence (P42858 1-88 limits assumed, change not shown): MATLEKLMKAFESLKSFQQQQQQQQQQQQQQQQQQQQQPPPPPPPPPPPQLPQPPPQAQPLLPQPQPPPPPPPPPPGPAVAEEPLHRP
T1 sequence (P08515 1-218, tags or fused parts left off): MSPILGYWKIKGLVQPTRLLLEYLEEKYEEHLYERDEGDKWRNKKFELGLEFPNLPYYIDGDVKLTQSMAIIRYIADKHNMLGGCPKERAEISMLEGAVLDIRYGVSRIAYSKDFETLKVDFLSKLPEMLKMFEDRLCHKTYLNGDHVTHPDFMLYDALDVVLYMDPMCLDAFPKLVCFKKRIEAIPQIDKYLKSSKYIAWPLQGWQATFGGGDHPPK
T2 sequence (P42858 other isoform, or with tags, fused parts or gaps limits assumed): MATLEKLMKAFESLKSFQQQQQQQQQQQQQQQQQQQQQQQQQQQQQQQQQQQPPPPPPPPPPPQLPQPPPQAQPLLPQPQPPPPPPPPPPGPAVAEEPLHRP

B1: NI-302.7D8 (antibody, V domains shown)
VH: QVQLVQSGSELKKPGASVKVSCKASGYNFNNYAINWLRQAPGQGLEWMGWINTITGHPTYAQGFKGRFVFSLDTSVSTAYLQISSLKPEDTAVYYCARTYSNYGEFDYWGQGTLVTVSS
VL: QSALTQPASVSGSRGQSITISCTGTSSDVGSYNLVSWYQQYPGKAPKLIIHEGSERPSGVSNRFSGSKSGNTASLTISGLQAEDEADYYCCSYAGTTTFVLFGGGTKLTVL
notes: also called anti-poly Q/P domain antibody
B1: binds [1].

B2: NI-302.64E5 (antibody, V domains shown)
VH: EVQLVETGGGLVKPGGSLRLSCAASGFTFDQAWMSWVRQVPGKGLEWVGRIKTKTEGEATDYAAPVRGRFTISRDDSEDTVFLQMNSLKTEDTALYYCTSTGVLAAAVDVYWGQGTLVTVSS
VL: DIQLTQSPDSLAVSLGERATMTCKSSQSLFYSYNNENYLAWYQQRPGQPPKLLIYWASTRESGVPDRFSGSGSGTDFTLTISSLQAEDVAVYYCQQYYSTPQTFGQGTKVDIK
B2: binds [1].

B3: NI-302.37C12 (antibody, V domains shown)
VH: EVQLVESGGGLVQPGGSLRLSCVASALTVTNSQMTWVRRAPGRGLEWVSVIYTSGSAYYADSVKGRFTISRDNSKNTVFLQMNSLRVEDTAVYYCAKGPSAYYYGLDLWGQGTTVTVSS
VL: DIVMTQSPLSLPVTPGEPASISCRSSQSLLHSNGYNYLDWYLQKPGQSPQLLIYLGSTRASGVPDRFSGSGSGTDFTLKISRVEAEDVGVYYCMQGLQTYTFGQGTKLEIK
B3: no binding (tested: 0.2 µg/ml primary antibody) [2]; binds [1].

B4: NI-302.74C11 (antibody, V domains shown)
VH: EVQLVQSGTEVQKPGASVKVSCKASGYSFTGYFLHWVRQAPGQGLEWMGWINPNSGDTNYAEKFRGRIIMTRDTSVSTAHMELSSLRFDDTALYYCTREAPDPGAETDVWGQGTTVTVSS
VL: QSVLTQPPSVSVSPGQTARITCSGDAVPKQYIYWYQQKPGQAPILVIYKDTQRPSGIPERFSGSNSGTTVTLTITGVQADDEGDYYCQSADSSATWVFGGGTKLTVL
B4: binds [1]; binds [3].

B5: NI-302.55D8 (antibody, V domains shown)
VH: QVQLVQSGSEVKKPGASVKVSCKASGYTFTDYYIHWVRQAPGQGLEWMGRINPNNGGTNYAQNFQGWVTMTRDTSISTAYMELSRLRSDDTAVYYCARVGGELLREGGYHYYMDVWGKGTTVTVSS
VL: QSVLTQPPSVSGAPGQRVTISCTGNSSNIGAGYDVHWYQQLPGTAPKLLIFDNTNRPSGVPDRFSGSKSGTSASLAITGLQAEDEANYHCQSYDNSLSGSWVFGGGTKLTVL
B5: binds [1].

B6: NI-302.35C1 (antibody, V domains shown)
VH: EVQLVESGGNLVQPGGSLRLSCTASGFTFSITALSWVRQAPEKGPQWVSAITGNAYGTYYADSVKGRFTISRDNAKNTLYLQMNGLRAEDTAIYYCVKGIASDSSGYSAFWGPGTLVTVSS
VL: EIVLTQSPATLSLSPGERATLSCRASQSVDNQFAWYQQKPGQAPRLLIYDASRRAPGIPDRFSGSGSGTDFTLTISSLEPEDFAIYYCQHRYTWLYTFGQGTRLEIK
notes: also called anti-C-terminal domain antibody
B6: binds [1].

B7: NI-302.15E8 (antibody, V domains shown)
VH: EVQLVESGGGLIQPGGSLRLSCAVSGFTVSSYSMNWVRQAPGKGLEWVSYTSSSRSNTKKYADSVKGRFTISRDNARNSLYLQMNSLRDEDTAVYYCARAGDFGELLTGEGYYGMDVWGQGTTVTVSS
VL: SYELTQPPSVSVSPGQTATITCSGDELGDKYVGWYQQKPGQSPLLVIYQDAKRPSGIPERFSGSNSGNTATLTISGTQAMDEADYYCQAWDSGTMVFGGGTRLTVL
notes: also called anti-N-terminal domain antibody
B7: binds [3]; binds [4].

B8: NI-302.8M1 (antibody, V domains shown)
VH: EVQLVQSGAEVKKPGASVKVSCKASGYTFTIYYMHWVRQAPGQGLEWMGGISPSGAHTMYAQNFQGRVTVTRDTSTSTVYMELSSLRSEDTAVYYCARGSTVTNYRPFDYWGQGTLVTVSS
VL: DIQMTQSPSSLSASVGDRVTITCRASQDISNYLAWYQQKPGKVPKLLIFAASTLQSGVPSRFGGSGSGTDFTLTISSLQPEDVATYYCQNYNSGPPPFGPGTKVDIK
B8: binds [1].

B9: NI-302.71F6 (antibody, V domains shown)
VH: QVQLQQWGAGLLKPSETLSLTCAVYGGSLSGYYWSWIRQPPGKGLEWIGEVNHSGGTNLNSSLKSRVIISVDKSKKQFSLKLSSVTAADTAMYFCARGYSYDPKYYFDSWSQGTLVTVSS
VL: QSALTQPASVSGSPGQAITISCTGTSSDIGSYDFVSWYQQDPGKAPKVIIYGVNKRPSGVSNRFSGSKSGNTASLTISGLQADDEADYYCCSYAGSTTWVFGGGTKLTVL
B9: binds [1]; binds [3].

B10: NI-302.6N9 (antibody, human IgG1, V domains shown)
VH: EVQLVESGGDLVQPGGSLRLSCVVSGFTFSSYAMTWVRQAPGKGLAWVSTISATGGSTFYTDSVRGRFTISRDNSKNTLYLQMNSLRTDDTAIYYCVKDLFGVDTSYYGMDVWGQGTTVTVSS
VL: EIVLTQSPGTLSLSPGERATLSCRPSQSVSGRYVAWYQQKPGQAPRLLFYAASNRAIGIPDRFSGSGSGTDFTLTISRLEPEDFAVYYCQHYGASSYTFGPGTKVDIK
notes: Expressed as complete human IgG1
B10: binds [5].

B11: NI-302.11A4 (antibody, V domains shown)
VH: EVQLVESGGGLIQPGGSLRLSCAASGFPVSSSYMSWVRQAPGEGLEWVSVLYRDGDTYYADSVQGRFTISRDNSQNTFYLQMNSLKAEDTAVYYCAGDRRSSHYYYGMDVWGQGTTVTVSS
VL: EIVMTQSPGTLSLSPGERATLSCRASQSVSSSYFAWYQQKPGQAPRLLIYGTSRRATAIPDRFSGSGSGTDFTLTISRLEPEDFAVYYCQQYGSSWTFGPGTKVEIK
B11: binds [1].

B12: NI-302.4A6 (antibody, V domains shown)
VH: EVQLVESGGGLVQPGGSLRLSCAASGFTFSAYAMSWVRQAPGKGLEWVSTISGSGGSTYYADSVKGRFSISRDNSKNTLYLQMNSLRAEDTAVYFCAKVTTELYGANSYYYYMDVWGKGTTVTVSS
VL: EIVLTQSPGTLSLSPGERATLSCRASQSVVSRYLAWYQQKPGQAPRLLIYGASSRATGIPDRFSGSGSGTDFTLTISRLEPEDFAMYYCQLYGNSQTFGQGTKVEIK
B12: binds [1].

B13: NI-302.63F3 (antibody, V domains shown)
VH: QVQLVQSGSAFKKPGTSVKVSCKASGYTFETRSMNWVRQAPGQGLEYMGWINTNTGNRTYVQAFRGRFVFSLDTSVSTAYLQISNLKTEDTAVYYCARGAGGGYWFDSWGQGTLVTVSS
VL: DIQMTQSPDSLAVSLGERATINCKSNQSLFYSSNNNNYLAWYQHKSGQPPKLLVYWGSTRESGVPDRFSGSGSGTDFTLTISSLQAEDVAIYYCHQYYHNPYTFGQGTKLEIK
notes: also called anti-P-rich domain antibody; anti-proline-rich domain antibody
B13: binds [1]; binds [3].

B14: NI-302.33C11 (antibody, V domains shown)
VH: EVQLVESGGGVVQPGNSLRLSCAASGFRFSDFGMHWVRQAPGKGLEWLALIWYDGGYKYYADSVKGRFTISRDNSKNTMFLQMNSLRAEDTAVYYCATHLEYCSRTTCYLGHWGQGTLVTVSS
VL: DIQLTQSPSFLSASVGDTVTFTCRASQGISDYLAWFQQKPGIAPKLLIYAASTLQTGVPSRFSGSGSGTEFTLTIRSLQSEDFGTYYCQQLKTYPYTFGQGTKVEIK
notes: also called anti-polyP domain antibody
B14 was tested, and the EC50 [1] was about 0.1 nM.

B15: NI-302.44D7 (antibody, human IgG1, V domains shown)
VH: EVQLVQSGGGLVQPGGSLRLSCAASGFTFSSYAMSWVRQAPGKGLEWVSGIGYSDTSTYYADSVKGRFTVSRDISKNTLYLQMNSLRAEDTAVYYCAKGTRDYYGMDVWGQGTMVTVSS
VL: QTVVTQEPSFSVSPGGTVTLTCGLSSGSVSTSYYPSWYQQTPGRAPRTLIYSTNTRSSGVPDRFSGSILGNKAALTITGAQADDESDYYCVLFMGSGIGVFGGGTRLTVL
notes: as for B10
B15: no binding (tested: 0.2 µg/ml primary antibody) [2].

B16: NI-302.15F9 (antibody, human IgG1, V domains shown)
VH: EVQLVESGGGLVTPGGSLRLSCEASGFLFKNSSMNWVRQTPGKGLEWVSSIDTSATNYKYYADSVKGRFTISRDDATNSLYLQMNSLRADDTATYYCARGYYTPRDFDYWGQGTLVTVSS
VL: DVVMTQSPQTLSVSLGQAASISCRSSQSLLYRDNNTYLNWFHQRPGQSPRRLIYRASDRDSGVPDRFSGGGSGTDFTLKISGVEAEDVGTYYCMQGTHWPRTFGQGTKVEIK
notes: as for B10
In the case of B16, the “fold preference of HD49 vs. HD21” value [6] is reported as about 5 fold.

B17: NI-302.22H9 (antibody, V domains shown)
VH: EVQLVESGGGLVHPWGSLRVSCAASGFSVSNYAITWVRQAPGKGLEYISVIYRDGRTYYGDSVRGRFTISRDDSKNTIYLQMNSLRFEDTAVYYCARAHGQYYYGVDVWGQGTTVTVSS
VL: DVVMTQSPLSLSVSPGEPASISCRSSQSLLHSNGYNYLDWYRQKPGQSPQLLIYLNSNRASGVPDRFSGSGSGTEFTLTISRVEAEDVGVYYCMQSLQTFTFGGGTKVEIK
B17: binds [1].
